B1: DKF-1 ULD (DKF-1^1–94) [C. elegans] / itself (parent)
chain: MDGSQGSTDYGDHVVLRYGGTREMVPLIRHEQMLDMLMERARQIVQGFGNLDTRNMYLFRHEYNSPTLLYPITSASQITSGSILEIILVDRTEA
B2: DKF-1 ULD–C1a (DKF-1^1–151) [C. elegans] / itself (parent)
chain: MDGSQGSTDYGDHVVLRYGGTREMVPLIRHEQMLDMLMERARQIVQGFGNLDTRNMYLFRHEYNSPTLLYPITSASQITSGSILEIILVDRTEAAVIPHVVEPESYMRPTFCDFCGEMLTGLMRQGVKCKNCNGNFHKRCSNAARNNCGAP

What was measured:
Assay in all cases: SEC-MALS (static light scattering)
Conditions in all cases: with itself
itself [1] = variants of: B1
itself [2] = variants of: B1; remark: listed apart in the source
itself [3] = variants of: B2; remark: listed apart in the source
itself [4] = variants of: B2; remark: listed apart in the source

| Variant | screen value (itself [1]) | screen value (itself [2]) | screen value (itself [3]) | screen value (itself [4]) |
| --- | --- | --- | --- | --- |
| MDGSQGSTDYGDHVVLRYGGTREMVPLIRHEQMLDMLMERARQIVQGFGNLDTRNMYLERHEYNSPTLLYPITSASQITSGSILEIILVDRTEA [chain 1 F59E] | 1.04 | 11.3 kDa |  |  |
| MDGSQGSTDYGDHVVLRYGGTREMVPLIRHEQMLDMLMERARQIVQGFGNLDTRNMYLERHEYNSPTLLYPITSASQITSGSILEIILVDRTEAAVIPHVVEPESYMRPTFCDFCGEMLTGLMRQGVKCKNCNGNFHKRCSNAARNNCGAP [chain 1 F59E] |  |  | 1.09 | 18.7 kDa |
